Data reported in IntAct's records for PubMed 20505668.

B1: Isocitrate dehydrogenase kinase/phosphatase (Escherichia coli (strain K12)), P11071 (parent)
chain: MPRGLELLIAQTILQGFDAQYGRFLEVTSGAQQRFEQADWHAVQQAMKNRIHLYDHHVGLVVEQLRCITNGQSTDAAFLLRVKEHYTRLLPDYPRFEIAESFFNSVYCRLFDHRSLTPERLFIFSSQPERRFRTIPRPLAKDFHPDHGWESLLMRVISDLPLRLRWQNKSRDIHYIIRHLTETLGTDNLAESHLQVANELFYRNKAAWLVGKLITPSGTLPFLLPIHQTDDGELFIDTCLTTTAEASIVFGFARSYFMVYAPLPAALVEWLREILPGKTTAELYMAIGCQKHAKTESYREYLVYLQGCNEQFIEAPGIRGMVMLVFTLPGFDRVFKVIKDRFAPQKEMSAAHVRACYQLVKEHDRVGRMADTQEFENFVLEKRHISPALMELLLQEAAEKITDLGEQIVIRHLYIERRMVPLNIWLEQVEGQQLRDAIEEYGNAIRQLAAANIFPGDMLFKNFGVTRHGRVVFYDYDEICYMTEVNFRDIPPPRYPEDELASEPWYSVSPGDVFPEEFRHWLCADPRIGPLFEEMHADLFRADYWRALQNRIREGHVEDVYAYRRRQRFSVRYGEMLF
partner: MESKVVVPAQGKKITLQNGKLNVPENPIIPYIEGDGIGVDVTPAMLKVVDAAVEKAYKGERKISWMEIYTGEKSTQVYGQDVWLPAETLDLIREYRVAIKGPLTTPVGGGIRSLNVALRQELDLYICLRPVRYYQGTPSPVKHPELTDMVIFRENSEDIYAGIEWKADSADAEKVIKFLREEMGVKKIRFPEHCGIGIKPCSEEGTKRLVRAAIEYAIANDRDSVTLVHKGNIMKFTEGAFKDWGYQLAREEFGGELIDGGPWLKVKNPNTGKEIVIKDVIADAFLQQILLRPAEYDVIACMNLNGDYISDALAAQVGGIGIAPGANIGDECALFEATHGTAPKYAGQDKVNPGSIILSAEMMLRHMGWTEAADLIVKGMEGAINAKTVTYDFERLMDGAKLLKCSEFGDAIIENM

Variants of: B1
Conditions: with idh_ecoli icd

Effect of a mutation on the interaction, disrupting interaction:
MPRGLELLIAQTILQGFDAQYGRFLEVTSGAQQRFEQADWHAVQQAMKNRIHLYDHHVGLVVEQLRCITNGQSTDAAFLLRVKEHYTRLLPDYPRFEIAESFFNSVYCRLFDHRSLTPERLFIFSSQPERRFRTIPRPLAKDFHPDHGWESLLMRVISDLPLRLRWQNKSRDIHYIIRHLTETLGTDNLAESHLQVANELFYRNKAAWLVGKLITPSGTLPFLLPIHQTDDGELFIDTCLTTTAEASIVFGFARSYFMVYAPLPAALVEWLREILPGKTTAELYMAIGCQKHAKTESYREYLVYLQGCNEQFIEAPGIRGMVMLVFTLPGFDRVFKVIKDRFAPQEEMSAAHVRACYQLVKEHDRVGRMADTQEFENFVLEKRHISPALMELLLQEAAEKITDLGEQIVIRHLYIERRMVPLNIWLEQVEGQQLRDAIEEYGNAIRQLAAANIFPGDMLFKNFGVTRHGRVVFYDYDEICYMTEVNFRDIPPPRYPEDELASEPWYSVSPGDVFPEEFRHWLCADPRIGPLFEEMHADLFRADYWRALQNRIREGHVEDVYAYRRRQRFSVRYGEMLF [K346E]
MPRGLELLIAQTILQGFDAQYGRFLEVTSGAQQRFEQADWHAVQQAMKNRIHLYDHHVGLVVEQLRCITNGQSTDAAFLLRVKEHYTRLLPDYPRFEIAESFFNSVYCRLFDHRSLTPERLFIFSSQPERRFRTIPRPLAKDFHPDHGWESLLMRVISDLPLRLRWQNKSRDIHYIIRHLTETLGTDNLAESHLQVANELFYRNKAAWLVGKLITPSGTLPFLLPIHQTDDGELFIDTCLTTTAEASIVFGFARSYFMVYAPLPAALVEWLREILPGKTTAELYMAIGCQKHAKTESYREYLVYLQGCNEQFIEAPGIRGMVMLVFTLPGFDRVFKVIKDRFAPQKEMSAAHVRACYQLVKEHDRVGRMADTQEFENFVLEKRHISPALMELLLQEAAEKITDLGEQIVIRHLYIERRMVPLNIWLEQVEGQQLRDAIEEYGNAIRQLAAANIFPGDMLFKNFGVTRHGRVVFYDYAEICYMTEVNFRDIPPPRYPEDELASEPWYSVSPGDVFPEEFRHWLCADPRIGPLFEEMHADLFRADYWRALQNRIREGHVEDVYAYRRRQRFSVRYGEMLF [D477A]

Variants of: B1
Conditions: with idh_ecoli icd
Remark: another data set of the same source

Effect of a mutation on the interaction, disrupting interaction:
MPRGLELLIAQTILQGFDAQYGRFLEVTSGAQQRFEQADWHAVQQAMKNRIHLYDHHVGLVVEQLRCITNGQSTDAAFLLRVKEHYTRLLPDYPRFEIAESFFNSVYCRLFDHRSLTPERLFIFSSQPERRFRTIPRPLAKDFHPDHGWESLLMRVISDLPLRLRWQNKSRDIHYIIRHLTETLGTDNLAESHLQVANELFYRNKAAWLVGKLITPSGTLPFLLPIHQTDDGELFIDTCLTTTAEASIVFGFARSYFMVYAPLPAALVEWLREILPGKTTAELYMAIGCQKHAKTESYREYLVYLQGCNEQFIEAPGIRGMVMLVFTLPGFDRVFAVIKDRFAPQKEMSAAHVRACYQLVKEHDRVGRMADTQEFENFVLEKRHISPALMELLLQEAAEKITDLGEQIVIRHLYIERRMVPLNIWLEQVEGQQLRDAIEEYGNAIRQLAAANIFPGDMLFKNFGVTRHGRVVFYDYDEICYMTEVNFRDIPPPRYPEDELASEPWYSVSPGDVFPEEFRHWLCADPRIGPLFEEMHADLFRADYWRALQNRIREGHVEDVYAYRRRQRFSVRYGEMLF [K336A]
MPRGLELLIAQTILQGFDAQYGRFLEVTSGAQQRFEQADWHAVQQAMKNRIHLYDHHVGLVVEQLRCITNGQSTDAAFLLRVKEHYTRLLPDYPRFEIAESFFNSVYCRLFDHRSLTPERLFIFSSQPERRFRTIPRPLAKDFHPDHGWESLLMRVISDLPLRLRWQNKSRDIHYIIRHLTETLGTDNLAESHLQVANELFYRNKAAWLVGKLITPSGTLPFLLPIHQTDDGELFIDTCLTTTAEASIVFGFARSYFMVYAPLPAALVEWLREILPGKTTAELYMAIGCQKHAKTESYREYLVYLQGCNEQFIEAPGIRGMVMLVFTLPGFDRVFKVIKDRFAPQKEMSAAHVRACYQLVKEHDRVGRMADTQEFENFVLEKRHISPALMELLLQEAAEKITDLGEQIVIRHLYIERRMVPLNIWLEQVEGQQLRDAIEEYGNAIRQLAAANIFPGDMLFKAFGVTRHGRVVFYDYDEICYMTEVNFRDIPPPRYPEDELASEPWYSVSPGDVFPEEFRHWLCADPRIGPLFEEMHADLFRADYWRALQNRIREGHVEDVYAYRRRQRFSVRYGEMLF [N462A]
MPRGLELLIAQTILQGFDAQYGRFLEVTSGAQQRFEQADWHAVQQAMKNRIHLYDHHVGLVVEQLRCITNGQSTDAAFLLRVKEHYTRLLPDYPRFEIAESFFNSVYCRLFDHRSLTPERLFIFSSQPERRFRTIPRPLAKDFHPDHGWESLLMRVISDLPLRLRWQNKSRDIHYIIRHLTETLGTDNLAESHLQVANELFYRNKAAWLVGKLITPSGTLPFLLPIHQTDDGELFIDTCLTTTAEASIVFGFARSYFMVYAPLPAALVEWLREILPGKTTAELYMAIGCQKHAKTESYREYLVYLQGCNEQFIEAPGIRGMVMLVFTLPGFDRVFKVIKDRFAPQKEMSAAHVRACYQLVKEHDRVGRMADTQEFENFVLEKRHISPALMELLLQEAAEKITDLGEQIVIRHLYIERRMVPLNIWLEQVEGQQLRDAIEEYGNAIRQLAAANIFPGDMLFKNFGVTRHGRVVFYAYDEICYMTEVNFRDIPPPRYPEDELASEPWYSVSPGDVFPEEFRHWLCADPRIGPLFEEMHADLFRADYWRALQNRIREGHVEDVYAYRRRQRFSVRYGEMLF [D475A]
MPRGLELLIAQTILQGFDAQYGRFLEVTSGAQQRFEQADWHAVQQAMKNRIHLYDHHVGLVVEQLRCITNGQSTDAAFLLRVKEHYTRLLPDYPRFEIAESFFNSVYCRLFDHRSLTPERLFIFSSQPERRFRTIPRPLAKDFHPDHGWESLLMRVISDLPLRLRWQNKSRDIHYIIRHLTETLGTDNLAESHLQVANELFYRNKAAWLVGKLITPSGTLPFLLPIHQTDDGELFIDTCLTTTAEASIVFGFARSYFMVYAPLPAALVEWLREILPGKTTAELYMAIGCQKHAKTESYREYLVYLQGCNEQFIEAPGIRGMVMLVFTLPGFDRVFKVIKDRFAPQKEMSAAHVRACYQLVKEHDRVGRMADTQEFENFVLEKRHISPALMELLLQEAAEKITDLGEQIVIRHLYIERRMVPLNIWLEQVEGQQLRDAIEEYGNAIRQLAAANIFPGDMLFKNFGVTRHGRVVFYDYDEICYMTEVNFRDIPPPRYPKDKLASEPWYSVSPGDVFPEEFRHWLCADPRIGPLFEEMHADLFRADYWRALQNRIREGHVEDVYAYRRRQRFSVRYGEMLF [E497K;E499K]
